The supplement of paper PMC10567573

B1: ZNF449 (parent)
chain: HTGERPYECTVCKKRFTRRSHLIG

Variants of: B1
Experiment: protein stability index of a GFP-peptide fusion (GPS, HEK-293T) (PSI 1-6); higher = more stable
Conditions: c terminus: a fixed tail appended
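Further: lentivirally expressed fusions sorted by FACS into six bins by GFP to DsRed ratio, PSI derived from sequencing read proportions per bin multiplied by bin number.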

**Q.** Which protein stability index does the source give for MTGERPYECTVCKKRFTRRSHLIG [H1M] here?
**A.** 2.96

**Q.** For KTGERPYECTVCKKRFTRRSHLIG [H1K], which protein stability index is on record?
**A.** 2.6

**Q.** For CTGERPYECTVCKKRFTRRSHLIG [H1C], which protein stability index is on record?
**A.** 2.48

**Q.** With TTGERPYECTVCKKRFTRRSHLIG [H1T] as the variant, how does the protein stability index read?
**A.** 1.7

**Q.** Which protein stability index does the source give for ATGERPYECTVCKKRFTRRSHLIG [H1A] here?
**A.** 2.47

**Q.** For HTGERPYECTVCKKRFTRRSHEIG [L22E], which protein stability index is on record?
**A.** 3.43

**Q.** With HTGERPYECTVCKKRFTRRSHSIG [L22S] as the variant, how does the protein stability index read?
**A.** 2.92

**Q.** With HTGERPYECTVCKKRFTRRSHFIG [L22F] as the variant, how does the protein stability index read?
**A.** 1.3

**Q.** For HTGERPYECTVCKKRFTRRSHVIG [L22V], which protein stability index is on record?
**A.** 3.02

**Q.** With HTGERPYECTVCKKRFTRRSHQIG [L22Q] as the variant, how does the protein stability index read?
**A.** 2.58

**Q.** For HTGERPYECTVCKKRFTIRSHLIG [R18I], which protein stability index is on record?
**A.** 2.7

**Q.** For HTGERPYECTVCKKRFTLRSHLIG [R18L], which protein stability index is on record?
**A.** 1.74

**Q.** For HTGERPYECTVCKKRFCRRSHLIG [T17C], which protein stability index is on record?
**A.** 4.7

**Q.** For HTGERPYECTVCKKRFKRRSHLIG [T17K], which protein stability index is on record?
**A.** 2.52

**Q.** With HTGERPYECTVCKKRFIRRSHLIG [T17I] as the variant, how does the protein stability index read?
**A.** 2.3

**Q.** With HTGERPYECTVCKKRFNRRSHLIG [T17N] as the variant, how does the protein stability index read?
**A.** 2.21

**Q.** For HTGERPYECTVCKKRFTRRSHLGG [I23G], which protein stability index is on record?
**A.** 1.81

**Q.** Which protein stability index does the source give for HTGERPYECTVCKKRFTRRSHLPG [I23P] here?
**A.** 2.23

**Q.** Which protein stability index does the source give for HTGERPYLCTVCKKRFTRRSHLIG [E8L] here?
**A.** 2.77

**Q.** With HTGERPYVCTVCKKRFTRRSHLIG [E8V] as the variant, how does the protein stability index read?
**A.** 2.35

**Q.** For HTGERPYPCTVCKKRFTRRSHLIG [E8P], which protein stability index is on record?
**A.** 1.94

**Q.** With HTGERPYSCTVCKKRFTRRSHLIG [E8S] as the variant, how does the protein stability index read?
**A.** 2.32

**Q.** With HTGERPYICTVCKKRFTRRSHLIG [E8I] as the variant, how does the protein stability index read?
**A.** 2.74

**Q.** With HTGERPYFCTVCKKRFTRRSHLIG [E8F] as the variant, how does the protein stability index read?
**A.** 1.84

**Q.** Which protein stability index does the source give for HTGEIPYECTVCKKRFTRRSHLIG [R5I] here?
**A.** 2.19

**Q.** With HTGEMPYECTVCKKRFTRRSHLIG [R5M] as the variant, how does the protein stability index read?
**A.** 2.24

**Q.** Which protein stability index does the source give for HTGEPPYECTVCKKRFTRRSHLIG [R5P] here?
**A.** 2.01

**Q.** For HTGELPYECTVCKKRFTRRSHLIG [R5L], which protein stability index is on record?
**A.** 2.09

**Q.** With HTGERPYECTVNKKRFTRRSHLIG [C12N] as the variant, how does the protein stability index read?
**A.** 3.42

**Q.** Which protein stability index does the source give for HTGERPYECTVDKKRFTRRSHLIG [C12D] here?
**A.** 3.99

**Q.** For HTGERPYECTVIKKRFTRRSHLIG [C12I], which protein stability index is on record?
**A.** 3.31

**Q.** For HTGERPYECTVVKKRFTRRSHLIG [C12V], which protein stability index is on record?
**A.** 2.76

**Q.** Which protein stability index does the source give for HTGERPYECTVSKKRFTRRSHLIG [C12S] here?
**A.** 3.39

**Q.** Which protein stability index does the source give for HTGERPYECCVCKKRFTRRSHLIG [T10C] here?
**A.** 2.54

**Q.** With HTGERPYECVVCKKRFTRRSHLIG [T10V] as the variant, how does the protein stability index read?
**A.** 1.39

**Q.** For HTGERPYECPVCKKRFTRRSHLIG [T10P], which protein stability index is on record?
**A.** 1.82

**Q.** For HTGERPYECWVCKKRFTRRSHLIG [T10W], which protein stability index is on record?
**A.** 1.3

**Q.** For HTGERPYECTVCKKRFTRRSHLIM [G24M], which protein stability index is on record?
**A.** 1.83

**Q.** Which protein stability index does the source give for HTGERPYECTVCKKRFTRRSHLIA [G24A] here?
**A.** 2.27

**Q.** With HEGERPYECTVCKKRFTRRSHLIG [T2E] as the variant, how does the protein stability index read?
**A.** 2.94

**Q.** With HTGERPYECTVCKKRFTRRSYLIG [H21Y] as the variant, how does the protein stability index read?
**A.** 2.35

**Q.** For HTGERPYECTVCKKRFTRRSLLIG [H21L], which protein stability index is on record?
**A.** 3.45

**Q.** Which protein stability index does the source give for HTGERPYECTVCKKRFTRRSWLIG [H21W] here?
**A.** 2.78

**Q.** With HTGERPYECTVCKKRFTRRSNLIG [H21N] as the variant, how does the protein stability index read?
**A.** 2.39

**Q.** With HTGERPYECTVCKKRFTRRSVLIG [H21V] as the variant, how does the protein stability index read?
**A.** 2.97

**Q.** With HTGERPYECTMCKKRFTRRSHLIG [V11M] as the variant, how does the protein stability index read?
**A.** 1.91

**Q.** For HTGERPYECTYCKKRFTRRSHLIG [V11Y], which protein stability index is on record?
**A.** 2.64

**Q.** Which protein stability index does the source give for HTGERPYECTICKKRFTRRSHLIG [V11I] here?
**A.** 1.58

**Q.** Which protein stability index does the source give for HTAERPYECTVCKKRFTRRSHLIG [G3A] here?
**A.** 2.63

**Q.** Which protein stability index does the source give for HTDERPYECTVCKKRFTRRSHLIG [G3D] here?
**A.** 2.44

**Q.** Which protein stability index does the source give for HTSERPYECTVCKKRFTRRSHLIG [G3S] here?
**A.** 2.33

**Q.** For HTRERPYECTVCKKRFTRRSHLIG [G3R], which protein stability index is on record?
**A.** 1.73

**Q.** With HTGERPYECTVCKKCFTRRSHLIG [R15C] as the variant, how does the protein stability index read?
**A.** 2.23

**Q.** Which protein stability index does the source give for HTGERPYECTVCKKWFTRRSHLIG [R15W] here?
**A.** 2.56

**Q.** For HTGERPYECTVCKKAFTRRSHLIG [R15A], which protein stability index is on record?
**A.** 1.99

**Q.** Which protein stability index does the source give for HTGERPYECTVCKKRFTRDSHLIG [R19D] here?
**A.** 1.62

**Q.** Which protein stability index does the source give for HTGERPYECTVCKKRFTRESHLIG [R19E] here?
**A.** 2.01

**Q.** Which protein stability index does the source give for HTGERPYECTVCKKRFTRTSHLIG [R19T] here?
**A.** 1.84

**Q.** For HTGERPYECTVCKKRFTRYSHLIG [R19Y], which protein stability index is on record?
**A.** 2.1

**Q.** For HTGERPYECTVCKARFTRRSHLIG [K14A], which protein stability index is on record?
**A.** 1.89

**Q.** Which protein stability index does the source give for HTGERPYECTVCKDRFTRRSHLIG [K14D] here?
**A.** 2.29

**Q.** With HTGERPYECTVCKWRFTRRSHLIG [K14W] as the variant, how does the protein stability index read?
**A.** 1.49

**Q.** With HTGERPYECTVCKHRFTRRSHLIG [K14H] as the variant, how does the protein stability index read?
**A.** 2.58

**Q.** Which protein stability index does the source give for HTGERPYECTVCKERFTRRSHLIG [K14E] here?
**A.** 1.73

**Q.** Which protein stability index does the source give for HTGERPRECTVCKKRFTRRSHLIG [Y7R] here?
**A.** 2.12

**Q.** With HTGERPMECTVCKKRFTRRSHLIG [Y7M] as the variant, how does the protein stability index read?
**A.** 2.11

**Q.** For HTGERPHECTVCKKRFTRRSHLIG [Y7H], which protein stability index is on record?
**A.** 2.06

**Q.** With HTGERPLECTVCKKRFTRRSHLIG [Y7L] as the variant, how does the protein stability index read?
**A.** 3.39

**Q.** For HTGERPQECTVCKKRFTRRSHLIG [Y7Q], which protein stability index is on record?
**A.** 2.21

**Q.** With HTGERPEECTVCKKRFTRRSHLIG [Y7E] as the variant, how does the protein stability index read?
**A.** 2.88

**Q.** Which protein stability index does the source give for HTGERPIECTVCKKRFTRRSHLIG [Y7I] here?
**A.** 2.62

**Q.** With HTGERPAECTVCKKRFTRRSHLIG [Y7A] as the variant, how does the protein stability index read?
**A.** 2.8

**Q.** For HTGERPYECTVCKKRATRRSHLIG [F16A], which protein stability index is on record?
**A.** 2.1

**Q.** Which protein stability index does the source give for HTGERPYECTVCKKRWTRRSHLIG [F16W] here?
**A.** 1.96

**Q.** For HTGERPYECTVCKKRLTRRSHLIG [F16L], which protein stability index is on record?
**A.** 1.67

**Q.** For HTGERPYECTVCGKRFTRRSHLIG [K13G], which protein stability index is on record?
**A.** 1.52

**Q.** Which protein stability index does the source give for HTGERPYECTVCLKRFTRRSHLIG [K13L] here?
**A.** 2.09

**Q.** With HTGERPYECTVCYKRFTRRSHLIG [K13Y] as the variant, how does the protein stability index read?
**A.** 2.47

**Q.** With HTGERPYEDTVCKKRFTRRSHLIG [C9D] as the variant, how does the protein stability index read?
**A.** 4.05

**Q.** For HTGERPYELTVCKKRFTRRSHLIG [C9L], which protein stability index is on record?
**A.** 2.83

**Q.** For HTGERPYEETVCKKRFTRRSHLIG [C9E], which protein stability index is on record?
**A.** 3.31

**Q.** For HTGERGYECTVCKKRFTRRSHLIG [P6G], which protein stability index is on record?
**A.** 2.77

**Q.** For HTGERRYECTVCKKRFTRRSHLIG [P6R], which protein stability index is on record?
**A.** 1.82

**Q.** For HTGERKYECTVCKKRFTRRSHLIG [P6K], which protein stability index is on record?
**A.** 2.02

**Q.** With HTGERNYECTVCKKRFTRRSHLIG [P6N] as the variant, how does the protein stability index read?
**A.** 2.3

**Q.** With HTGERVYECTVCKKRFTRRSHLIG [P6V] as the variant, how does the protein stability index read?
**A.** 3.36

**Q.** For HTGERWYECTVCKKRFTRRSHLIG [P6W], which protein stability index is on record?
**A.** 2.38

**Q.** With HTGERYYECTVCKKRFTRRSHLIG [P6Y] as the variant, how does the protein stability index read?
**A.** 2.22

**Q.** Which protein stability index does the source give for HTGFRPYECTVCKKRFTRRSHLIG [E4F] here?
**A.** 1.9

**Q.** For HTGWRPYECTVCKKRFTRRSHLIG [E4W], which protein stability index is on record?
**A.** 1.8

**Q.** With HTGHRPYECTVCKKRFTRRSHLIG [E4H] as the variant, how does the protein stability index read?
**A.** 2.17

**Q.** With HTGPRPYECTVCKKRFTRRSHLIG [E4P] as the variant, how does the protein stability index read?
**A.** 2.04

**Q.** With HTGLRPYECTVCKKRFTRRSHLIG [E4L] as the variant, how does the protein stability index read?
**A.** 1.5

**Q.** Which protein stability index does the source give for HTGARPYECTVCKKRFTRRSHLIG [E4A] here?
**A.** 1.42
